Experimental data as given in the supplement of paper PMC9170038.

System: MS2 coat protein
Experiment: apparent KD of MS2 coat protein; designed switch direction (-1 OFF switch, 1 ON switch): -1; higher = weaker reporter binding
In short: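 Each step of the titration lasted 0.8–1.5 h at the lowest concentration and 10–20 min at the highest. The protein, SNAP-549-labelled MS2 coat protein, went from 0.7 or 1.5 nM doubling to 3 µM over RNA switches transcribed on Illumina chips by stalled E. coli RNA polymerase. Normalised cluster fluorescence was curve-fitted, and the per-design median over clusters is given as apparent KD.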

[1] = Eterna round: R95, input ligand: microRNA oligo, concentration not stated
[2] = Eterna round: R95, input ligand: FMN 200 uM
[3] = Eterna round: R95, input ligand: none
[4] = input ligand: microRNA oligo, concentration not stated

Row | Sequence | apparent KD of MS2 coat protein [1] [nM] | apparent KD of MS2 coat protein (input ligand: FMN 200 uM) [nM] | apparent KD of MS2 coat protein (input ligand: none) [nM] | further results
1 | AACAUGUCAGGAUAUAUGACAUGGCUCUUCGGAGCAAGCUCAUAGAAGGGACAUGAGGAUCACCCAUGUAGAGC [Ex4-3: 21] (puzzle: Exclusion 4) | 21.7 |  |  | 
2 | AGAAGUAGUAUCCGAUCCUACAUGAGGAUCACCCAUGUAGCUAGACGUGCACGCGAUGCUCGUCAGACUACCAGAUG [salish99_TOv1_r3_030] (puzzle: Sensor v3, turn-off variant 1) | 205 |  |  | apparent KD of MS2 coat protein [2]: 156 nM; apparent KD of MS2 coat protein [3]: 405 nM
3 | AAGAAACAUGAGGAUCACCCAUGUGAGGAUAUGGCCCGCCCGGCGUGAGCUGGAUAAAUCAGAAGGCACAAAGG [salish99_ex1_r4_012] (Eterna round: R97, puzzle: Exclusion 1) |  | 57.2 | 46 | 
4 | GCACAGGCAGGAUAUACAUGAGGAUCACCCAUGUGAUCCCUUAAGUACAAAAGUACAAGUAGAAGGGCCUGUGC [Omei Ex3 Model Bachelor's Dilema v43] (Eterna round: R97, puzzle: Exclusion 3) |  | 21.2 | 916 | 
5 | GUGUACUGAGGAUAUACAUGAGGAUCACCCAUGUGAAUAAGAUAGAAUAAGAUAAAGUGUAGAAGGCAGAGUGU [Excluse me!!! 2 - Jieux - Exclusion 3] (puzzle: Exclusion 3) | 36.9 |  |  | 
6 | UUCUUACAUGAGGAUCACCCAUGUCAGGAUAUCUCCUCACUGCGCUUGCGCAGUGGAUAGAGAAGGGACAGGCU [JL ViennaUCT Aner mod 3] (puzzle: Exclusion 1) | 43.1 |  |  | 
7 | ACUUACUGAGGAUAUACAUAGAUUUACAUGAGGAUCACCCAUGUUCCUCUUUGUAUAAAUGUAGAAGGCAGAAGAU [Mat - Exclusion 5 - JL Mod - D59] (Eterna round: R97, puzzle: Exclusion 5) |  | 183 | 96.5 | 
8 | AAUAGCAAGUAGAUCCUAAACAUGAGGAUCACCCAUGUGCUCGUCUUGUAAAGUACUAUCACGAAAGUGAUAGUACA [Sensor 3, v1 - 57] (puzzle: Sensor v3, turn-off variant 1) | 300 |  |  | apparent KD of MS2 coat protein [2]: 151 nM; apparent KD of MS2 coat protein [3]: 233 nM
9 | CCACGACAUGAGGAUCACCCAUGUGAGGAUAUGGCCUGAAAAGCGUGAGCAGUAUCAAUCAGAAGGCGCGUGGG [salish99_ex1_r4_061] (Eterna round: R97, puzzle: Exclusion 1) |  | 116 | 76.4 | 
10 | GCGUUUUGGUGAGGAUAUCGGCCCUAAACCGGGCAACAUGAGGAUCACCCAUGUACGUGAUCCUGCGAGAAGGCACCGAUUAUA [Digeerle] (Eterna round: R96, puzzle: Exclusion NG 2) |  | 122 | 123 | apparent KD of MS2 coat protein [4]: 104 nM
11 | AAUUCACAUGAGGAUCACCCAUGUCAGGAUAUGGUGACGCGGGUUUCGGUGCGUGUUGCCAGAAGGGACGGCUG (puzzle: Exclusion 1) | 92.4 |  |  | 
12 | AAUAAGCUAGGAUAUACAUGAGGAUCACCCAUGUGAGGGCACGGCCGGCGCGGGCCCGGUAGAAGGAGUCAUAA [Exc;s3-VI] (puzzle: Exclusion 3) | 26.4 |  |  | 
13 | AGAUCACAUGAGGAUCACCCAUGUGAGGAUAUGAUACUAUGUACUUCGGUACAUAGUAUCAGAAGGCAUGUGGA [Ex1-3: 75] (puzzle: Exclusion 1) | 53.7 |  |  | 
14 | CGUAGUCUUCGGACUACGAACAUGAGGAUCACCCAUGUAAUGAGCAGAUCCUCAUGCAAGCUUUUUGCUCGUCUUAU [Sensor v3 - turn-off variant 1 - 46] (puzzle: Sensor v3, turn-off variant 1) | 11.5 |  |  | apparent KD of MS2 coat protein [2]: 13.8 nM; apparent KD of MS2 coat protein [3]: 20.7 nM
15 | GAUUAUGCGAGCUUUAGGGACAUGAGGAUCACCCAUGUUCGUCUUAUUGAUCUAGGUACACUAACAUACCUAAAUCU [JMF 17] (puzzle: Sensor v3, turn-off variant 1) | 38.1 |  |  | apparent KD of MS2 coat protein [2]: 19.8 nM; apparent KD of MS2 coat protein [3]: 23.1 nM
16 | GAAAACGCAGAGGAUAUUUCAGAUCAAAGCUGCAAAGAAGGCUGCACAUGAGGAUCACCCAUGUGGUCUCAAAA [Mod of Quesina 3 - Jieux - Exclusion 6] (Eterna round: R97, puzzle: Exclusion 6) |  | 422 | 33.6 | 
17 | CUAAAUCAUGUAGGAUAUGCGUGGCGAAGCUAUGCAGAAGGACAUGAGGAUCACCCAUGUCAUUCCGUCUGCGUACAGACGGGA [Mat - Exclusion NG 1 - Mod of JL - D48] (Eterna round: R96, puzzle: Exclusion NG 1) |  | 133 | 28.6 | apparent KD of MS2 coat protein [4]: 21 nM
18 | AUAUAGAUAGUCAGGAUAUGCUAGUGAUAACAGUAGCAGAAGGGACAUGAGGAUCACCCAUGUGGAUAGCGCAC [Brourd's EX4 #5] (Eterna round: R97, puzzle: Brourd's mod of Exclusion 4) |  | 139 | 39.7 | 

Row | Sequence | apparent KD of MS2 coat protein [1] [nM] | apparent KD of MS2 coat protein (input ligand: FMN 200 uM) [nM] | apparent KD of MS2 coat protein (input ligand: none) [nM] | further results
19 | GAUGAGGUAGGAUAUACGAGAAGAUAGGGUAGAUAGAGAACACAUGAGGAUCACCCAUGUAGAAGGACCAGUAG [Mat - Exclusion 2 - Mod of my Tesla design - D73] (puzzle: Exclusion 2) | 25.9 |  |  | 
20 | AAAGUGUGAGGAUAUCCUGGGCUGGGCCGGGAGGUUCGGUUGGAGAAGGCACAUGAGGAUCACCCAUGUAACGG [Excls4-IX] (puzzle: Exclusion 4) | 57.1 |  |  | 
21 | AUAAAUAAGGAGGAUAUCGUAUCGGAAACGAUACGAGAAGGCCUAACAUGAGGAUCACCCAUGUUCCUUAAAUA [Mat - Exclusion 6 - Eli Mod - D62] (puzzle: Exclusion 6) | 24.1 |  |  | apparent KD of MS2 coat protein [2]: 40.9 nM; apparent KD of MS2 coat protein [3]: 21.6 nM
22 | UACUUCCGAGGAUAUACAUGAGGAUCACCCAUGUGCUUCAGCAUCUAAUGAUGCAUGGGUAGAAGGCGGUAGUU [LRO-Excl3-20] (puzzle: Exclusion 3) | 56 |  |  | 
23 | AGUAAUUCAAGAGGAUAUCACAUGAGGAUCACCCAUGUAUAGCGCGCUACGCUAGUCCUCGUAUUUGAGAAGGUUUGAUAAAAG [Mat - Exclusion NG 2 - Mod of JL - D76] (Eterna round: R96, puzzle: Exclusion NG 2) |  | 18.7 | 17.5 | apparent KD of MS2 coat protein [4]: 13.4 nM
24 | AUUUACGGAGGAUAUACUUGAGGAUCACCCAAGUGGAGUCCCGUUUGGGCGGUAAAUAGUAGAAGGCCGUCCUA [jl-ex3-4.46 ViennaUCT mod] (Eterna round: R97, puzzle: Exclusion 3) |  | 27.7 | 16.2 | 
25 | UAGGUACAUGAGGAUCACCCAUGUGAGGAUAUAGAGGAAGAUUGCGAGAGGGAGAGGACUAGAAGGCACAGUGG [JR_Exclu1_Sub035] (puzzle: Exclusion 1) | 28.1 |  |  | apparent KD of MS2 coat protein [2]: 37 nM; apparent KD of MS2 coat protein [3]: 39.9 nM
26 | AAUGGUAAAGUCAGGAUAUACGUAAAUCGUUCUAGGUAGAAGGGACAUGAGGAUCACCCAUGUAUGAUAGUAAA [Ex4 #32] (Eterna round: R97, puzzle: Brourd's mod of Exclusion 4) |  | 31.9 | 35.4 | 
27 | ACUCGUAACUAGGAUAUCCGAAAUAAACGAGGAGGAGAAGGAGUUACAUGAGGAUCACCCAUGUGAUAUAAAGA [Edtisoed] (puzzle: Exclusion 6) | 15.3 |  |  | apparent KD of MS2 coat protein [2]: 47 nM; apparent KD of MS2 coat protein [3]: 17.6 nM
28 | CACCGUUACAGAGGAUAUGACACAUGAGGAUCACCCAUGUAAUAAAUGAGAAUUUCGAAUGUAACUCAGAAGGCUGGAAUCGGC [Ostricism 77 - Jieux - Exclusion NG 2] (Eterna round: R96, puzzle: Exclusion NG 2) |  |  |  | apparent KD of MS2 coat protein [4]: 22.1 nM
29 | CAUGAUCUUCGGAUCAUGUACAUGAGGAUCACCCAUGUGACGAGUUACAUGAAAAACAAGCUUUUUGCUCGUCUUAU [Sensor v3 - Turn-off variant 1 - 9] (puzzle: Sensor v3, turn-off variant 1) | 121 |  |  | apparent KD of MS2 coat protein [2]: 42.1 nM; apparent KD of MS2 coat protein [3]: 49.8 nM
30 | UAAUGUAUAUAGGAUAUCUAGCUGGAAACAGCUAGAGAAGGAUGUACAUGAGGAUCACCCAUGUAAAUCAAUAG [Ex6/9-A2] (Eterna round: R97, puzzle: Exclusion 6) |  | 48.3 | 21.8 | 
31 | UAUAUAUAGUAAGGAUAUGUAUUUGUUUUAUAAACAGAAGGUACUGACAUGAGGAUCACCCAUGUUUUAGUGUGGGCAUGUAGA [JMF's solution 11] (Eterna round: R96, puzzle: Exclusion NG 1) |  |  |  | apparent KD of MS2 coat protein [4]: 32.8 nM
32 | UAAAGUAUAUAGGAUAUCUAGCUGGAUACAGCUAGAGAAGGAUGUACAUGAGGAUCACCCAUGUAGAUCUCAAA [Ex6/15-A1] (Eterna round: R97, puzzle: Exclusion 6) |  | 17.4 | 14.8 | 
33 | AAUGAUUGAUGAGGAUAUUGUGGUGAAACACGACGAGAAGGCAUAUGUCACAUGAGGAUCACCCAUGUGAGCUUUGUGGAUAUA [Ex NG1 #67] (Eterna round: R96, puzzle: Exclusion NG 1) |  |  |  | apparent KD of MS2 coat protein [4]: 18.3 nM
34 | AGAAAUGCCCAUGGCCACAAGCUUUCUGCUUGUCUUACUACAUGAGGAUCACCCAUGUAACAUGGGCUCCUGAUAAU [Enzainge] (puzzle: Sensor v3, turn-off variant 2) | 10.4 |  |  | apparent KD of MS2 coat protein [2]: 13.2 nM; apparent KD of MS2 coat protein [3]: 11.4 nM
35 | AGCGCCAUCGUGAGAUGGCGUAUUACAUGAGGAUCACCCAUGUAGGAUAUCGAUUGCUUUGCAGUCGAGAAGGGCAUGUCCAAG [JL ENG3 3.80 Mod I] (Eterna round: R96, puzzle: Exclusion NG 3) |  | 45.4 | 35 | apparent KD of MS2 coat protein [4]: 37.8 nM
